Measurements from patent US20250313626A1 (HARBOUR BIOMED SHANGHAI, published 2025).
Changes are numbered by the printed parent chain. Like-named read-outs stand apart in the source and are kept apart here.

T1: Cynomolgus macaques CD200R1 isoform a on CHOK1 cells (CHOK1/cynoCD200R1a) (Cynomolgus macaques)
T1 chain: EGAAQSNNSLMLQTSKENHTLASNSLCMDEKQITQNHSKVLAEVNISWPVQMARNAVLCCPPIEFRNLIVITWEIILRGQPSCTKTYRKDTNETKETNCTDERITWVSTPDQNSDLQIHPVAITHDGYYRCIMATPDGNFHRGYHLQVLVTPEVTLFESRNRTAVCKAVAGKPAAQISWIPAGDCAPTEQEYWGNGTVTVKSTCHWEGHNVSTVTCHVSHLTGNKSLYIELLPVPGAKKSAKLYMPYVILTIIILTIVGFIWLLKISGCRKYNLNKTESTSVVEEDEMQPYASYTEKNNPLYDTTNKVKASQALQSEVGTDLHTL

T2: human CD200R1 isoform a on CHOK1 cells (CHOK1/hCD200R1a) (human, UniProt Q8TD46 25-348)
T2 construct: also called CHOK1/CD200R1a
T2 sequence: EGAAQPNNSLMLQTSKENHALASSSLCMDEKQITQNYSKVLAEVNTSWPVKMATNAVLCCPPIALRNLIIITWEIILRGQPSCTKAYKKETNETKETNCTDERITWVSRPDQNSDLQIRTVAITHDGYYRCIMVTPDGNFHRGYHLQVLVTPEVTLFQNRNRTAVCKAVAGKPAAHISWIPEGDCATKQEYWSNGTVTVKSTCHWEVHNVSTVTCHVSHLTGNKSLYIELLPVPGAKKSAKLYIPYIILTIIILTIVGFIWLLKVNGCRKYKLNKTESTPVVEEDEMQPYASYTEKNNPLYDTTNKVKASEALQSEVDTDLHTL

T3: CD200R1a on PathHunter Jurkat CD200R1a signaling cells (Eurofins DiscoverX, 93-1136C19) (human, UniProt Q8TD46 25-348)
T3 sequence: T2 sequence

T4: human CD200R1a protein (soluble recombinant) (human, UniProt Q8TD46 29-265)
T4 construct: Soluble protein used in BLI; also called human CD200R1 isoform a; not shown: His tag implied by capture on anti-Penta-HIS biosensors
T4 sequence: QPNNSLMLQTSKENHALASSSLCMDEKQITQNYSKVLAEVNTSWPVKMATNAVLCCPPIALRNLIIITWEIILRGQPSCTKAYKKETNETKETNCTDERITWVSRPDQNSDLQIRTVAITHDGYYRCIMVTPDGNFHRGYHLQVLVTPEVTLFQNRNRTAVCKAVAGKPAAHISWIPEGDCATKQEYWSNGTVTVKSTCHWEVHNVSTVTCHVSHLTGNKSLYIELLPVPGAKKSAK

T5: Mouse CD200R1-His (mouse, UniProt Q9ES57 26-238, limits assumed)
T5 sequence (looked up): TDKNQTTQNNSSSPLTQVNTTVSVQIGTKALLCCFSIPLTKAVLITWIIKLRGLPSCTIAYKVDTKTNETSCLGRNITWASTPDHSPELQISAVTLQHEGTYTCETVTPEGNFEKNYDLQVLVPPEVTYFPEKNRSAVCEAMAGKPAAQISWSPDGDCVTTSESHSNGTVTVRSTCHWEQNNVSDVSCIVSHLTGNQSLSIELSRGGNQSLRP

B1: PR007630 (antibody, human IgG1, kappa, V domains shown)
VH: QVQLVESGGGVVQPGRSLRLSCAASGFTFSSYGFHWVRQAPGKGLEWLGIIWSDASNKYYADSVKGRFTISRDNSKNTLYLQMNSLRAEDTAVYYCARDRIVGEGFDYWGQGTLVTVSS
VL: DIVMTQSPLSLPVTPGEPASISCRSSQSLLHRSGYNYLDWYLQKPGQSPQLLIYLGSYRASGVPDRFSGSGSGTDFTLKISRVEAEDVGVYYCMQGLQTMYTFGQGTKLEIKR
notes: PTM variant of PR006839 (human IgG1)
B2: PR007631 (antibody, human IgG1, kappa, V domains shown)
VH: B1 VH with I50L, S56R, N57H, Y59D
VL: B1 VL with A60W
notes: as for B1
B3: PR007972 (antibody, human IgG1, kappa, V domains shown)
VH: B1 VH with S31Y
VL: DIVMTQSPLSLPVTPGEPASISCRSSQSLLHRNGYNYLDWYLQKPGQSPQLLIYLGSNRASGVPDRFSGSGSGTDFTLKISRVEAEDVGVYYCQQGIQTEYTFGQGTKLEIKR
notes: as for B1
B4: PR006475 (antibody, human IgG1, kappa, L234A L235A, V domains shown)
VH: QVQLQESGPGLVKPSGTLSLTCAVSGASISSGHWWSWVRQPPGKGLEWIGEIYHSGSTNYTPSLKSRVTISVDKSKNQFSLKLTSVTAADTAVYYCAREASYHYGSGSYYTPFDFWGQGTLVTVSS
VL: EIVLTQSPATLSVSPGERATLSCRASQSVSSNLAWYQQKPGQAPRLLIYGASTRATGIPARFSGSGSGTEFTLTISSLQSEDFALYYCQQYNNWIIFGQGTRLEIKR

Key:
[1] = molecular target: T1, Cynomolgus macaques CD200R1 isoform a …; test: flow cytometry, CHOK1/cynoCD200R1a cells (APC-A Mean); table beside the curves
[2] = molecular target: T2, human CD200R1 isoform a on CHOK1 cells …; test: flow cytometry blocking assay: biotin-labelled human CD200 binding to CHOK1/hCD200R1a cells; y axis Inhibition %
Method: (§1) In brief, CHOK1/hCD200R1a cells were digested and resuspended in 2% BSA in PBS. […] The cells were placed at 4° C. and incubated for 1 hour in the dark. […] 100 μL/well of pre-cooled PBS containing 2% BSA was added to rinse the cells twice, centrifugation was performed at 500 g, 4° C. for 5 minutes, and the supernatant was discarded. Fluorescent secondary antibody (PE Streptavidin, BD, Cat #: 554061, 1:200) was added at 100 μL/well, and incubation was performed at 4° C. for 30 minutes in the dark. The cells were washed twice with 200 μL/well of pre-cooled PBS, and were centrifuged at 500 g, 4° C. for 5 minutes, and the supernatant was discarded. Finally, 200 μL/well of pre-cooled PBS was used to resuspend the cells, and the fluorescence signal values were read using ACEA Novocyte 3000 flow cytometer. IC50 values were calculated.

[3] = molecular target: T3, CD200R1a on PathHunter Jurkat CD200R1a …; test: cell-based or functional assay
[4] = molecular target: T2, human CD200R1 isoform a on CHOK1 cells …; test: flow cytometry blocking assay: antibody titrated against biotin-labelled human CD200 binding to CHOK1/hCD200R1a cells; head prints EC50 without unit, x axis Log [Ab] (nM), y axis Inhibition %
Method: as §1

[5] = molecular target: T2, human CD200R1 isoform a on CHOK1 cells …; test: flow cytometry, CHOK1/hCD200R1a cells (FITC-Mean); table beside the curves
Method: (§2) This example is intended to investigate the in vitro binding activity of human anti-CD200R1 monoclonal antibodies to human/Cynomolgus macaques CD200R1a expressed on the surface of cells. The anti-CD200R1 antibodies were produced as described in Example 3.4 and the binding experiments at the cell level were performed using CHOK1/hCD200R1a and CHOK1-cynoCD200R1a.
(§3) Briefly, CHOK1/hCD200R1a cells and CHOK1-cynoCD200R1a cells were digested, and collected, and then were resuspended in PBS containing 2% BSA, respectively. The cell density was adjusted to 1×10⁶ cells/mL. The cells were seeded in a 96-well V-bottom plate (Corning, #3894) at 100 μL/well, followed by the addition of test antibodies and reference antibodies in a series diluted concentration, each at 100 μL/well. The cells were incubated away from light at 4° C. for 1 h. Thereafter, the cells in each well were rinsed twice with 100 μL of pre-cooled PBS containing 2% BSA, and centrifuged at 500 g at 4° C. for 5 min, and then the supernatant was discarded. 100 μL of fluorescent secondary antibody (Alexa Fluor 488-conjugated AffiniPure Goat Anti-Human IgG, Fcγ Fragment Specific, Jackson, #109-545-098, diluted in a 1:1000 ratio) was added in each well, and the plate was incubated away from light at 4° C. for 1 h. The cells in each well were rinsed twice with 100 μL of pre-cooled PBS containing 2% BSA, and centrifuged at 500 g at 4° C. for 5 min, and then the supernatant was discarded. Finally, the cells in each well were resuspended in 200 μL of pre-cooled PBS containing 2% BSA, and the fluorescence signal values were read using a BD CantoII flow cytometer.

[6] = molecular target: T2, human CD200R1 isoform a on CHOK1 cells …; test: flow cytometry, CHOK1/hCD200R1a cells (FITC-Mean); table beside the curves, head without unit, x axis Log [Ab] (nM)
[7] = molecular target: T3, CD200R1a on PathHunter Jurkat CD200R1a …; test: cell-based or functional assay; remark: listed apart in the source
[8] = molecular target: T4, human CD200R1a protein (soluble …); test: BLI (Octet), antibody captured on anti-human Fc sensor, soluble CD200R1a as analyte, 1:1 fit
Method: (§4) To determine the binding affinities of the anti-CD200R1 antibodies to CD200R1a proteins of various species (mouse, human, Cynomolgus macaques), bio-layer interferometry (BLI) assays were carried out using an Octet® RED96e instrument. Antibodies were produced as described in Example 3.4 and diluted to 5 μg/mL using freshly prepared 1× kinetic buffer (10× kinetic buffer (Catalog #18-1105, ForteBio) was diluted with PBS(Catalog #E607016-0500, BBI Life Sciences)) and were captured on the surface of anti-human Fc (AHC) Octet biosensors (Catalog #18-5060, ForteBio) to reach capture levels between 0.9-1.2 nm. The biosensors having the captured anti-CD200R1 antibodies were then dipped in wells containing 2-fold serial dilutions of CD200R1a proteins to detect association signals, followed by dissociation steps in wells containing 1× kinetic buffer. The sensorgrams were recorded and the reference signals were subtracted before curve fitting using ForteBio Data Analysis 11.0 software. Association rates (kₒₙ) and dissociation rates (koff) were calculated using a simple one-to-one Langmuir binding model. The equilibrium dissociation constant (KD) was calculated as the ratio of koff/kₒₙ.

[9] = molecular target: T2, human CD200R1 isoform a on CHOK1 cells …; test: flow cytometry, CHOK1/hCD200R1a cells; table beside the curves, head without unit, x axis Log [Ab] (nM)
Method: as §2, §3

[10] = molecular target: T3, CD200R1a on PathHunter Jurkat CD200R1a …; test: cell-based or functional assay; remark: listed apart in the source
[11] = molecular target: T2, human CD200R1 isoform a on CHOK1 cells …; test: flow cytometry blocking assay: antibody titrated against biotin-labelled human CD200 binding to CHOK1/hCD200R1a cells
Method: To study the activity of human anti-CD200R1 antibodies in blocking the binding of human CD200 to its receptor CD200R1a in vitro, CHOK1/hCD200R1a was used to perform cell-level human CD200/human CD200R1a binding and blocking experiments.
as §1

Mouse CD200R1-His = molecular target: T5, Mouse CD200R1-His; test: BLI (Octet), antibody captured on anti-human Fc sensor
Method: as §4

| Binder | EC50 [1] [nM] | MFI (MAX) [1] | Blocking(Max) [2] [%] | IC50 of the inhibition of CD200-induced PathHunter Jurkat CD200R1a luminescence (CHOK1/hCD200 cells as CD200 source) [3] [nM] | EC50 [4] [nM] | MFI(Max) [5] | EC50 [6] [nM] | IC50 of the inhibition of CD200-induced PathHunter Jurkat CD200R1a luminescence (CHOK1/hCD200 cells as CD200 source) [7] [nM] | Kd [8] [nM] | koff [8] [s⁻¹] | kon [8] [M⁻¹ s⁻¹] | EC50 [9] [nM] | IC50 of the inhibition of CD200-induced PathHunter Jurkat CD200R1a luminescence (CHOK1/hCD200 cells as CD200 source); head without unit, x axis Log [Ab] (nM) [10] [nM] | Blocking (Max %) [11] [%] | IC50 [11] [nM] | binding result (Mouse CD200R1-His) |
| --- | --- | --- | --- | --- | --- | --- | --- | --- | --- | --- | --- | --- | --- | --- | --- | --- |
| B1 | 4.69 | 58600 | 99.9 | 0.46 | 0.359 | 18900 | 0.313 |  |  |  |  |  |  |  |  |  |
| B2 | 3.63 | 51800 | 99.9 | 0.266 | 0.323 | 19400 | 0.311 |  |  |  |  |  |  |  |  |  |
| B3 | 4.48 | 51200 | 99.9 |  | 0.158 | 19000 | 0.19 | 0.368 |  |  |  |  |  |  |  |  |
| B4 |  |  |  |  |  |  |  |  | 12.8 | 0.000376 | 29400 | 6.97 | 10.6 | 110 | 32.2 | no binding |
